Test results published in article PMC6842044.

Target: Glial cell line-derived neurotrophic factor (GDNF), immobilised for SPR (UniProt P39905)
Assay: SPR

Kd: 85.5 nM
B1: Activin receptor-like kinase 5 (ALK5), analyte in SPR (receptor)
chain: LQCFCHLCTKDNFTCVTDGLCFVSVTETTDKVIHNSMCIAEIDLIPRDRPFVCAPSSKTGSVTTTYCCNQDHCNKIELPTTVKSSPGLGPVELAAVIAGPVCFVCISLMLMVYICHNRTVIHHRVPNEEDPSLDRPFISEGTTLKDLIYDMTTSGSGSGLPLLVQRTIARTIVLQESIGKGRFGEVWRGKWRGEEVAVKIFSSREERSWFREAEIYQTVMLRHENILGFIAADNKDNGTWTQLWLVSDYHEHGSLFDYLNRYTVTVEGMIKLALSTASGLAHLHMEIVGTQGKPAIAHRDLKSKNILVKKNGTCCIADLGLAVRHDSATDTIDIAPNHRVGTKRYMAPEVLDDSINMKHFESFKRADIYAMGLVFWEIARRCSIGGIHEDYQLPYYDLVPSDPSVEEMRKVVCEQKLRPNIPNRWQSCEALRVMAKIMRECWYANGAARLTALRIKKTLSQLSQQEGIKM
